Assay results as given in the supplement of paper PMC9112550, “Optimization of the antimicrobial peptide Bac7 by deep mutational scanning” (BMC Biology, 2022).

tested on: Escherichia coli TOP10; assay: shrunken log2 fold change of peptide-encoding DNA abundance (4.5 h post-induction vs induction); higher = less antimicrobial activity (less host growth inhibition); settings: time post-induction: 4.5 h; library: site-saturation at positions 5, 18, 19, 20
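Also: peptides expressed intracellularly from a pBAD plasmid library in pooled LB shake-flask culture, induced with 0.3% L-arabinose, DNA abundance read by NGS, three biological replicates, DESeq2 with apeglm shrinkage.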

Point of comparison: RRIRYRPPRLPRPRPRPGPQPRP, “shrunken log2 fold change” value -0.151. Against it:
- RRIRWRPPRLPRPRPRPIQLPRP — within 0.2 log units, -0.304
- RRIRKRPPRLPRPRPRPTRHPRP — higher, 0.482
- RRIRFRPPRLPRPRPRPGQPPRP — higher, 0.199
- RRIRYRPPRLPRPRPRPTYNPRP — lower, -1.32
- RRIRERPPRLPRPRPRPEGWPRP — higher, 0.668
- RRIRGRPPRLPRPRPRPNCIPRP — higher, 0.247
- RRIRARPPRLPRPRPRPNAGPRP — higher, 0.315
- RRIRKRPPRLPRPRPRPSAVPRP — higher, 0.0941
- RRIRWRPPRLPRPRPRPTHPPRP — higher, 0.709
- RRIRKRPPRLPRPRPRPHGNPRP — within 0.2 log units, -0.0306
- RRIRFRPPRLPRPRPRPCNRPRP — within 0.2 log units, -0.111
- RRIRKRPPRLPRPRPRPIYLPRP — within 0.2 log units, -0.305
- RRIRWRPPRLPRPRPRPCFKPRP — within 0.2 log units, 0.0478
- RRIRMRPPRLPRPRPRPHIYPRP — within 0.2 log units, -0.289
- RRIRVRPPRLPRPRPRPILFPRP — lower, -0.395
- RRIRARPPRLPRPRPRPGYDPRP — within 0.2 log units, -0.0224
- RRIRVRPPRLPRPRPRPNMMPRP — within 0.2 log units, -0.248
- RRIRFRPPRLPRPRPRPCYEPRP — within 0.2 log units, -0.228
- RRIRERPPRLPRPRPRPPGYPRP — within 0.2 log units, -0.175
- RRIRRRPPRLPRPRPRPLVHPRP — higher, 0.223
- RRIRARPPRLPRPRPRPDNHPRP — within 0.2 log units, -0.0167
- RRIRTRPPRLPRPRPRPGYVPRP — lower, -0.526
- RRIRTRPPRLPRPRPRPNYMPRP — within 0.2 log units, 0.0222
- RRIRDRPPRLPRPRPRPYRIPRP — within 0.2 log units, 0.0295
- RRIRPRPPRLPRPRPRPDYMPRP — within 0.2 log units, -0.334
- RRIRLRPPRLPRPRPRPWVRPRP — within 0.2 log units, -0.00819
- RRIRTRPPRLPRPRPRPSSPPRP — within 0.2 log units, -0.312
- RRIRRRPPRLPRPRPRPPMMPRP — higher, 0.21
- RRIRCRPPRLPRPRPRPEDNPRP — higher, 0.11
- RRIRIRPPRLPRPRPRPHIGPRP — within 0.2 log units, -0.17
- RRIRPRPPRLPRPRPRPQVCPRP — higher, 0.129
- RRIRRRPPRLPRPRPRPRSEPRP — higher, 0.342
- RRIRIRPPRLPRPRPRPGINPRP — lower, -0.603
- RRIRDRPPRLPRPRPRPVMQPRP — within 0.2 log units, 0.023
- RRIRARPPRLPRPRPRPRQWPRP — higher, 0.68
- RRIRWRPPRLPRPRPRPCWYPRP — within 0.2 log units, -0.277
- RRIRLRPPRLPRPRPRPYWGPRP — within 0.2 log units, -0.304
- RRIRARPPRLPRPRPRPAPKPRP — higher, 1
- RRIRFRPPRLPRPRPRPTHKPRP — within 0.2 log units, -0.0458
- RRIRERPPRLPRPRPRPRDSPRP — within 0.2 log units, 0.0154
- RRIRMRPPRLPRPRPRPQKDPRP — within 0.2 log units, 0.0308
- RRIRLRPPRLPRPRPRPDAFPRP — higher, 0.0575
- RRIRDRPPRLPRPRPRPLKRPRP — within 0.2 log units, -0.0492
- RRIRARPPRLPRPRPRPQCNPRP — within 0.2 log units, -0.104
- RRIRYRPPRLPRPRPRPKCWPRP — higher, 0.14
- RRIRKRPPRLPRPRPRPRNHPRP — higher, 0.197
- RRIRWRPPRLPRPRPRPEINPRP — higher, 0.267
- RRIRFRPPRLPRPRPRPGDNPRP — within 0.2 log units, -0.0236
- RRIRLRPPRLPRPRPRPNDNPRP — lower, -0.557
- RRIRARPPRLPRPRPRPLWSPRP — higher, 0.263
- RRIRFRPPRLPRPRPRPRCKPRP — within 0.2 log units, 0.0452
- RRIRTRPPRLPRPRPRPQEGPRP — within 0.2 log units, -0.0173
- RRIRFRPPRLPRPRPRPWWWPRP — within 0.2 log units, 0.0474
- RRIRSRPPRLPRPRPRPVRRPRP — higher, 0.558
- RRIRYRPPRLPRPRPRPLQTPRP — within 0.2 log units, 0.0147
- RRIRCRPPRLPRPRPRPDCHPRP — within 0.2 log units, -0.0697
- RRIRRRPPRLPRPRPRPKYYPRP — within 0.2 log units, -0.199
- RRIRRRPPRLPRPRPRPCSKPRP — within 0.2 log units, -0.123
- RRIRMRPPRLPRPRPRPLASPRP — higher, 1.34
- RRIRCRPPRLPRPRPRPHSEPRP — within 0.2 log units, -0.319
- RRIRQRPPRLPRPRPRPYNWPRP — within 0.2 log units, -0.11
- RRIRKRPPRLPRPRPRPGNTPRP — within 0.2 log units, -0.0331
- RRIRFRPPRLPRPRPRPEYKPRP — within 0.2 log units, -0.0678
- RRIRLRPPRLPRPRPRPRRDPRP — higher, 0.2
- RRIRMRPPRLPRPRPRPTMIPRP — within 0.2 log units, -0.185
- RRIRQRPPRLPRPRPRPFNSPRP — within 0.2 log units, -0.3
- RRIRLRPPRLPRPRPRPQQDPRP — within 0.2 log units, -0.29
- RRIRTRPPRLPRPRPRPVPQPRP — within 0.2 log units, 0.00694
- RRIRGRPPRLPRPRPRPYQGPRP — within 0.2 log units, 0.0167
- RRIRMRPPRLPRPRPRPVRAPRP — higher, 1.08
- RRIRIRPPRLPRPRPRPEEGPRP — within 0.2 log units, -0.05
- RRIRHRPPRLPRPRPRPPKTPRP — higher, 0.177
- RRIRKRPPRLPRPRPRPNCAPRP — higher, 0.873
- RRIRHRPPRLPRPRPRPHYIPRP — within 0.2 log units, -0.35
- RRIRPRPPRLPRPRPRPHYHPRP — lower, -0.936
- RRIRFRPPRLPRPRPRPRTMPRP — higher, 0.0577
- RRIRPRPPRLPRPRPRPPYPPRP — within 0.2 log units, -0.0364
- RRIRRRPPRLPRPRPRPEIAPRP — higher, 0.84
- RRIRKRPPRLPRPRPRPFKYPRP — lower, -0.517
- RRIRARPPRLPRPRPRPETSPRP — higher, 0.912
- RRIRSRPPRLPRPRPRPWTMPRP — higher, 0.0795
- RRIRRRPPRLPRPRPRPGCYPRP — higher, 0.17
- RRIRMRPPRLPRPRPRPGACPRP — higher, 0.73
- RRIRQRPPRLPRPRPRPFLQPRP — within 0.2 log units, -0.194
- RRIRSRPPRLPRPRPRPDAFPRP — higher, 0.387
- RRIRPRPPRLPRPRPRPFMAPRP — within 0.2 log units, -0.305
- RRIRHRPPRLPRPRPRPAFGPRP — higher, 0.105
- RRIRMRPPRLPRPRPRPHNYPRP — within 0.2 log units, -0.0828
- RRIRIRPPRLPRPRPRPYVSPRP — lower, -0.518
- RRIRFRPPRLPRPRPRPNLLPRP — within 0.2 log units, -0.187
- RRIRKRPPRLPRPRPRPGCIPRP — higher, 0.424
- RRIRYRPPRLPRPRPRPNQQPRP — within 0.2 log units, -0.0105
- RRIRWRPPRLPRPRPRPNFDPRP — within 0.2 log units, -0.0228
- RRIRYRPPRLPRPRPRPKGMPRP — within 0.2 log units, -0.111
- RRIRERPPRLPRPRPRPGVQPRP — lower, -0.351
- RRIRHRPPRLPRPRPRPWFFPRP — lower, -0.379
- RRIRQRPPRLPRPRPRPSKNPRP — higher, 0.0658
- RRIRFRPPRLPRPRPRPLAIPRP — within 0.2 log units, -0.0726
- RRIRERPPRLPRPRPRPQEEPRP — within 0.2 log units, -0.000946
- RRIRRRPPRLPRPRPRPAWSPRP — higher, 0.321
- RRIRTRPPRLPRPRPRPHSHPRP — lower, -0.626
- RRIRGRPPRLPRPRPRPRGQPRP — higher, 0.803
- RRIRDRPPRLPRPRPRPYSDPRP — within 0.2 log units, 0.0396
- RRIRCRPPRLPRPRPRPSHLPRP — lower, -0.53
- RRIRIRPPRLPRPRPRPIQAPRP — within 0.2 log units, -0.209
- RRIRFRPPRLPRPRPRPLPVPRP — higher, 0.142
- RRIRYRPPRLPRPRPRPWIMPRP — within 0.2 log units, -0.253
- RRIRIRPPRLPRPRPRPPKCPRP — within 0.2 log units, -0.101
- RRIRTRPPRLPRPRPRPLFGPRP — within 0.2 log units, -0.186
- RRIRYRPPRLPRPRPRPQPKPRP — within 0.2 log units, -0.0232
- RRIRTRPPRLPRPRPRPLDCPRP — within 0.2 log units, -0.294
- RRIRTRPPRLPRPRPRPMYSPRP — within 0.2 log units, -0.00295
- RRIRWRPPRLPRPRPRPDQQPRP — higher, 0.0822
- RRIRSRPPRLPRPRPRPKVVPRP — within 0.2 log units, 0.00912
- RRIRLRPPRLPRPRPRPLVSPRP — within 0.2 log units, 0.0156
- RRIRKRPPRLPRPRPRPIEHPRP — higher, 0.332
- RRIRRRPPRLPRPRPRPCMTPRP — higher, 0.409
- RRIRIRPPRLPRPRPRPKKTPRP — within 0.2 log units, -0.235
- RRIRLRPPRLPRPRPRPWRAPRP — higher, 0.392
- RRIRGRPPRLPRPRPRPLSDPRP — higher, 0.365
- RRIRVRPPRLPRPRPRPYITPRP — lower, -0.77
- RRIRERPPRLPRPRPRPRIVPRP — within 0.2 log units, -0.0184
- RRIRERPPRLPRPRPRPRANPRP — within 0.2 log units, -0.158
- RRIRFRPPRLPRPRPRPLEMPRP — lower, -0.357
- RRIRSRPPRLPRPRPRPGHKPRP — within 0.2 log units, -0.112
- RRIRTRPPRLPRPRPRPILQPRP — lower, -0.44
- RRIRPRPPRLPRPRPRPFKGPRP — within 0.2 log units, -0.209
- RRIRNRPPRLPRPRPRPWHLPRP — within 0.2 log units, -0.0913
- RRIRKRPPRLPRPRPRPIYDPRP — within 0.2 log units, -0.0349
- RRIRDRPPRLPRPRPRPPTCPRP — within 0.2 log units, 0.0486
- RRIRPRPPRLPRPRPRPTYEPRP — higher, 0.0844
- RRIRYRPPRLPRPRPRPYNPPRP — within 0.2 log units, -0.256
- RRIRTRPPRLPRPRPRPSAYPRP — within 0.2 log units, -0.144
- RRIRCRPPRLPRPRPRPYTRPRP — lower, -0.669
- RRIRNRPPRLPRPRPRPEYEPRP — within 0.2 log units, -0.156
- RRIRQRPPRLPRPRPRPLVEPRP — within 0.2 log units, -0.0628
- RRIRSRPPRLPRPRPRPDFTPRP — within 0.2 log units, 0.0298
- RRIRERPPRLPRPRPRPRYMPRP — lower, -0.785
- RRIRQRPPRLPRPRPRPYTTPRP — within 0.2 log units, -0.0148
- RRIRCRPPRLPRPRPRPYYFPRP — lower, -1.08
- RRIRCRPPRLPRPRPRPWKIPRP — within 0.2 log units, -0.268
- RRIRARPPRLPRPRPRPQQMPRP — higher, 0.12
- RRIRTRPPRLPRPRPRPQCCPRP — within 0.2 log units, -0.0803
- RRIRARPPRLPRPRPRPRHWPRP — higher, 0.511
- RRIRWRPPRLPRPRPRPNPLPRP — within 0.2 log units, 3.58e-05
- RRIRSRPPRLPRPRPRPMTIPRP — within 0.2 log units, -0.0727
- RRIRVRPPRLPRPRPRPGEEPRP — within 0.2 log units, 0.00621
- RRIRSRPPRLPRPRPRPLDFPRP — within 0.2 log units, -0.223
- RRIRARPPRLPRPRPRPKKIPRP — higher, 0.489
